This series in a line: yeast display, Sf9 membrane polyspecificity reagent, FACS + sequencing; frameworks hold sequencing errors. Put shortly: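 Sorting gates, low and high (top ~1%), were placed on anti-HA fluorescence to track expression and on streptavidin fluorescence to track reagent binding. A clone's polyreactivity label is taken from the gate it came out of. The reagent was 10% biotinylated, detergent-solubilized Sf9 membrane, applied for 1 hour at 4 °C to galactose-induced yeast display cells.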
Take “QVQLVESGGGLVQAGGSLRLSCAASGLISRRNAMGWYRQAPGKERELVAAISTGSSTNYADSVKGRFTISRDNAKNTVYLQMNSLKPEDTAVYYCAATQYWWSTLGIRDDYWGQGSQVTVSS”: the “polyreactivity (PSR sort gate)” value is recorded as “low polyreactivity”.
On to “QVQLVESGGGLVQAGGSLRLSCAASGLISSINAMGWYRQAPGKERELVATITSGGSTYYADSVKGRFTISRDNAKNTVYLQMNSLKPEDTAVYYCAARSSVRAYYSWGHGTQVTVSS”, for which the “polyreactivity (PSR sort gate)” value is recorded as “high polyreactivity”.
Under “QVQLVESGGGLVQAGGSLRLSCAASGLNFARNAMGWYRQAPGKERELVAAISSSGNTYADSVKGRFTISRDNAKNTVYLQMNSLKPEDTAVYYCAADYVRWGQRKRSRYYYWGQGTQVTVSS” stands “high polyreactivity”.
Regarding “QVQLVESGGGLVQAGGSLRLSCAASGLPFRDYAMGWYRQAPGTERELVAAISDGDDSTSYADSVKGRFTSSRDNAKTTGYLQMNSQNPEDTAVYDCAPYLSDPDFLAGIYGLYNYWGQGTQVTVSS”, the “polyreactivity (PSR sort gate)” value is recorded as “low polyreactivity”.
As to “QVQLVESGGGLVQAGGSLRLSCAASGLSFGDYTMGWYRQAPGKERELVAAITGSGASTYYADSVKGRFTISRDNAKNTVYLQMTRLKPEDTAGYYCAAERTPSYRAYDYWGQATQVTVSS”, the “polyreactivity (PSR sort gate)” value is on record as “low polyreactivity”.
As for “QVQLVESGGGLVQAGGSLRLSCAASGLSFPLNAMGWYRPAPGKERQLVAAITYSGGGTYYADSVKGRFTISRDTAKNTGYLQMNSLKTEDTAVYYCAADGSVSYYTYYYWGQGTQVTVSS”, the “polyreactivity (PSR sort gate)” value is listed as “low polyreactivity”.
For “QVQLVESGGGLVQAGGSLRLSCAASGLTCASYVMGWYRQAPGKERELVAAISSSGDSTYYADSVKGRFTISRDNAKNTFYLEMNSLKPEDTAVYYCASNDYVWGQGTQVTVSS”, the “polyreactivity (PSR sort gate)” value is “low polyreactivity”.
Consider “QVQLVESGGGLVQAGGSLRLSCAASGLTCYYYARGLYRQAPGKERELVADISSGGSTKYADSVKGRFTISRDNAKNTVYLQMNSLKPEDTAVYYCATGYFCGFRYRPYYYWGQGTQVTVSS”, for which the “polyreactivity (PSR sort gate)” value is “high polyreactivity”.
On to “QVQLVESGGGLVQAGGSLRLSCAASGLTFADNTMGWYRQAPGKERELVAAIDWSGGGTDYADSVKGRFTISRDNAKNTVYLQMNSLKPEDTAVYYCNAERTSWEDDYWGQGTQVTVSS”, for which the “polyreactivity (PSR sort gate)” value was “low polyreactivity”.
With “QVQLVESGGGLVQAGGSLRLSCAASGLTFAGNAMGWYRQAPGKEREFVATITWSDGSTRYADSVKGRFTISRDNAKNTVYLQMNSLKPEDTAVYYCNTQYPDYFYEFNYWGQGTQVTVSS”, the “polyreactivity (PSR sort gate)” value is “low polyreactivity”.
In the case of “QVQLVESGGGLVQAGGSLRLSCAASGLTFAGYAMGWYRQAPGKERELVAAISSGGRTNYADSVKGRFTISRDNAKNTVYLHMNSLKPADTAVYYCAARISTHAPHRRLTYEYWGQGTQVTVSS”, the “polyreactivity (PSR sort gate)” value is on record as “low polyreactivity”.
Consider “QVQLVESGGGLVQAGGSLRLSCAASGLTFAYNAMGWYRQAPGKARQLVASINWSDSSTYYADSVKGRFTISRDNAKNTVYLQMHSLKPEDTEVYYCAADAYYVGQGYDYGGQGTQVTVSS”, for which the “polyreactivity (PSR sort gate)” value is “low polyreactivity”.
For the sequence “QVQLVESGGGLVQAGGSLRLSCAASGLTFAYYAMGWYIQAPGKERELVAAITWNGGSTYYADSVKGRFTISRDNSKNTVYLQMNSLKPEDTAVYYCAASWGYCYSGRFDYWGQGTEVTVSS”, the “polyreactivity (PSR sort gate)” value is “high polyreactivity”.
On to “QVQLVESGGGLVQAGGSLRLSCAASGLTFAYYDMGWYRQAPGKERELVAAITSGGTTNYADSVKGRFTISRDNAKNTVYLQMNSLKPEDTAVYYCNADYYSRIVGVRIYDYWGQGTQVTVSS”, for which the “polyreactivity (PSR sort gate)” value is recorded as “low polyreactivity”.
The value for “QVQLVESGGGLVQAGGSLRLSCAASGLTFDEYAMGWYRQPPGKERELVARITQSGGSTYYADSVKGRFTISRDNAKNTVYLQMNSLKPEDTAVYYCNAGAPARYWWEGDYWGQGTQVTVSS” was “high polyreactivity”.
Take “QVQLVESGGGLVQAGGSLRLSCAASGLTFDSNVMGWYRQAPGKERELVAAITSSGRTYYADSVKGRFTISRDNEKNTVYLQMNSLKPEDTAVYYCAARNLAYTRKGYYYWGQGTQVTVSS”: the “polyreactivity (PSR sort gate)” value is “high polyreactivity”.
Take “QVQLVESGGGLVQAGGSLRLSCAASGLTFDSNVMRWYRQAHGKEMELVAAITSSGRTYYADSVKGRFTISRDNAKNTFYLQMNSLKPEDTAVYYCAARNLAYTRKGYYYWGQGTQVTVSS”: the “polyreactivity (PSR sort gate)” value was “high polyreactivity”.
Under “QVQLVESGGGLVQAGGSLRLSCAASGLTFDTYAMGWYRQAPGKERELVAAISICGRTNYADSVKGRFTISRDNAKNTVYLQMNSLKPQDTAVYYCAVGAVVPGRRRRTYYYWGQGTQVTVSS” stands “high polyreactivity”; under “QVQLVESGGGLVQAGGSLRLSCAASGLTFDVYTMGWYRQAPGKERELVAGITSGGSTDYADSVKGRFTISRDNAKNTVYLQMNSLKPEDTAVYYCNKPFPYYPDGPNGYDYWGQGTQVTVSS”, “low polyreactivity”; under “QVQLVESGGGLVQAGGSLRLSCAASGLTFDWNTMGWYRQAPGKERELVATITYTGGSTYYADSVKGRFTISRDNAKNTVYLQMNSLKPEDTAVYFCAARRTRYRSYSRVRYTYDYWGQGTQVTVSS”, “high polyreactivity”.
Regarding “QVQLVESGGGLVQAGGSLRLSCAASGLTFDWYTMGWYRQAPGKERELVATINSGGSTDYADSVKGRFTISRDNAKNTVYLQMNSLKPEDTAVYYCNAEYGYSGVGDDYWGQGTQVTVSS”, the “polyreactivity (PSR sort gate)” value was “low polyreactivity”.
In the case of “QVQLVESGGGLVQAGGSLRLSCAASGLTFDYYAMGWSRQAPGKERELVAAITSSGGRTYYADSVKGRFTISRDNAKNTVYLQMNSLKPEDTAVYYCAKRDSYYNGVGYWGQGTQVTVSS”, the “polyreactivity (PSR sort gate)” value was “low polyreactivity”.
Under “QVQLVESGGGLVQAGGSLRLSCAASGLTFDYYAMGWYRQAPGKERELVAAIDWSGGSTYYADSVKGRFTISRDNAKNTVYLQMNSLKPEDTAVYYCATESDDSGMDYWGQGTQVTVSS” stands “low polyreactivity”.
Turning to “QVQLVESGGGLVQAGGSLRLSCAASGLTFDYYDRGGYRQAPGKERELVASITWRGSSTYYADSVKGRFTISRDNAKNTVYLQMNSLKPEDTAVYYCAARPQHFDLDLAYSGFDYWGQGTQVTVSS”, the “polyreactivity (PSR sort gate)” value was “high polyreactivity”.
For “QVQLVESGGGLVQAGGSLRLSCAASGLTFDYYVMGWYRQAPGKERELVATISWSGDITYYADSVKGRFTISRDNAKNTVYLQMNSLKPEDTAVYYCAADYLDSTYGYVYGWDDYWGQGTQVTVSS”, the “polyreactivity (PSR sort gate)” value is reported as “low polyreactivity”.
“QVQLVESGGGLVQAGGSLRLSCAASGLTFEKYSMGWYRQAPGKERELVAAISQDGGSTYYADSVKGRFTISRDNAKNTVYLQMNSVKPEDTAVYYCAAEDPDSWLPWDLFDYWGQGTQVTVSS”: the “polyreactivity (PSR sort gate)” value is given as “low polyreactivity”.
Take “QVQLVESGGGLVQAGGSLRLSCAASGLTFERYAMGWNREAPGKERELVAAISGSGGSTYYADSVKGRFTISRDNAKNTVYLQMNSLTPEDTAVYYCAAYPTVWYDYWGQGTQVTVSS”: the “polyreactivity (PSR sort gate)” value is “high polyreactivity”.
Under “QVQLVESGGGLVQAGGSLRLSCAASGLTFFPNAMGWYRQAPGKERELVAAISNNGGRTYYADSVKGRFTISRDNAKNTVYLQMNSLKPEDTAVYYCAKYLSPGERHSYDYWGQGTQVTVSS” stands “high polyreactivity”; under “QVQLVESGGGLVQAGGSLRLSCAASGLTFGAYAMGWYRQAPGKEREFVAAITYSGGSTNYADSVKGRFTISRDNAKNTVYLQMNSLKPEDTAVYSCNAGYYSPWAFYPYDYWGQGTQVTVSS”, “high polyreactivity”.
The value for “QVQLVESGGGLVQAGGSLRLSCAASGLTFGGNAMGWYRQAPGKERELVAGISSSGNTNYADSVKGRFTISRDNAKNTVYLQMNSLKPEDTAVYYCAADENITYPVYDMYYWGQGTQVTVSS” was “low polyreactivity”.

The values above are taken from the nanobody polyreactivity screen of Harvey et al. (2022).
